Experimental data as given in patent publication US20090226404A1 (published 2009).

Columns and labels:
[1] = target: T1, gp100 peptide on HLA-A*02:01 (human); test: 51Cr release with peptide titrated on T2 cells; RNA-electroporated CD8+ T cells 24 h after electroporation; ED50 is the peptide concentration at 50% of maximum lysis; lower end of the range; full-length, on cells
T1 peptide: YLEPGPVTA
Method: (§1) CD8⁺ T cells were electroporated with EGFP RNA (Neg) or RNA coding for the TCR α and β chain, and were used as effector cells in cytotoxicity assays 24 h after electroporation. T2 cells loaded with different concentrations of gp100₂₈₀₋₂₈₈ peptide (as indicated) were used as target cells, and % lysis was calculated. The target to effector cell ratio was 1:15. The peptide concentration corresponding to 50% of the maximum lysis (ED₅₀), used to measure the cytolytic efficiency, is indicated by the dotted line. Average values of triplicates±SD are shown. Data of one (out of five) representative T cell donor is shown.
(§2) From previous published work, we know that the cytolytic efficiency of the parental 296 CTL clone was preserved following retroviral transduction of TCR genes into T cells. To test the avidity of the TCR RNA-transfected T cells, we performed a cytotoxicity assay (24 h after electroporation) in which we titrated the gp100₂₈₀₋₂₈₈ peptide on T2 target cells (FIG. 6). The peptide concentration corresponding to 50% of the maximum lysis (i.e. ED₅₀) of the TCR RNA-transfected T cells ranged from 300-1000 pM in three independent experiments (FIG. 6). This is in the same range as the cytolytic efficiency of the retrovirally transduced T cells (ED₅₀=300 pM). Both approximate the cytolytic efficiency of the parental 296 CTL clone, which has an ED₅₀ of 50 pM [24]. […]

[2] = target: T1, gp100 peptide on HLA-A*02:01; test: cytolytic efficiency of the parental 296 CTL clone, peptide titration; value cited from ref. 24; T cell clone or line
[3] = target: T1, gp100 peptide on HLA-A*02:01; test: 51Cr release with peptide titrated on T2 cells; RNA-electroporated CD8+ T cells 24 h after electroporation; upper end of the range; full-length, on cells
Method: as §1, §2

[4] = target: T1, gp100 peptide on HLA-A*02:01; test: cytolytic efficiency of retrovirally transduced T cells, peptide titration; value taken from earlier work (ref. 24); full-length, on cells
[5] = target: T2, gp100 (209-217 analogue) peptide on HLA-A*02:01 (human); test: killing
T2 peptide: IMDQVPFSV

B1: gp100-specific 296 TCR (TCR, V domains shown)
Valpha: GENVEQHPSTLSVQEGDSAVIKCTYSDSASNYFPWYKQELGKGPQLIIDIRSNVGEKKDQRIAVTLNKTAKHFSLHITETQPEDSAVYFCAASTSGGTSYGKLTFGQGTILTVHP
Vbeta: EAQVTQNPRYLITVTGKKLTVTCSQNMNHEYMSWYRQDPGLGLRQIYYSMNVEVTDKGDVPEGYKVSRKEKRNFPLILESPSPNQTSLYFCASSLGSSYEQYFGPGTRLTVT
EC50 of peptide [1]: ≥ 300 pM | EC50 of peptide [2]: 50 pM | EC50 of peptide [3]: ≤ 1000 pM | EC50 of peptide [4]: 300 pM | binding result [5]: no recognition
